Measurements published in patent US20230083670A1.

Experiments:
[1] = target: PD-L1 on CHO-PD-L1 cells (human) (UniProt Q9NZQ7); assay: flow cytometry cell binding; CHO-PD-L1 cells
[2] = target: CD47 on Jurkat cells (UniProt Q08722); assay: flow cytometry cell binding; Jurkat cells

Sequence of PD-L1 on CHO-PD-L1 cells (human) (Q9NZQ7 19-290): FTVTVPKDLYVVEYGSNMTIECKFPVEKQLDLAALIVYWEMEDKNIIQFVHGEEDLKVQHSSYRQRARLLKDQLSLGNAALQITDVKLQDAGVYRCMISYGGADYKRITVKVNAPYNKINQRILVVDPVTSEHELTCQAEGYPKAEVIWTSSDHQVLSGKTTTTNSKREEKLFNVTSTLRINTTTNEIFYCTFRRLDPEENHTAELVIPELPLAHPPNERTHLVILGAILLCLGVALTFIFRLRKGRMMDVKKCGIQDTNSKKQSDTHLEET

Row | EC50 [1] [nM] | EC50 [2] [nM] | Substance
1 | 0.027 |  | Atezolizumab
2 | 0.0471 | 0.913 | IMM2505
